Substitutions are numbered along the chain they refer to.
T1: human C5a (human, UniProt P01031 678-751)
T1 sequence: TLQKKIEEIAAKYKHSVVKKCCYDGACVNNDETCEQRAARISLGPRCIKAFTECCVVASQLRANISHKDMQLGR

B1: INab308 (antibody, V domains shown)
VH: QVQLQQSGPQLVRPGTSVKISCKASGYSFTTFWMDWVKQRPGQGLEWIGRIDPSDSESRLDQRFKDRATLTVDKSSSTVYMQLSSPTSEDSAVYYCARGNDGYYGFAYWGQGTLVTVSS
VL: DIVLTQSPASLAVSLGQRATISCKASQSVDYDGDSYMKWYQQKPGQPPKLLIYAASNLQSGIPARFSGSGSGTDFTLNIHPVEEEDAATYYCQQSNEDPYTFGGGTKLEIK
notes: Mouse monoclonal antibody from a hybridoma (BALB/c mice immunized with recombinant human C5a), purified from ascites on protein A; said to be bivalent
B2: INab708 (antibody, V domains shown)
VH: VQLLESGAELMKPGASVKISCKATGNTFSGYWIEWVKQRPGHGLEWIGEILPGSGSTNYNEKFKGKATLTADTSSNTAYMQLSSLTSEDSAVYYCTRRGLYDGSSYFAYWGQGTLVTVSA
VL: B1 VL with K38N, Q59G, D86V, S95N, Y100L, G104A, K107L, I110L
notes: as for B1

Key:
human C5a [1] = molecular target: T1, human C5a; assay: cell-based or functional assay
human C5a [2] = molecular target: T1, human C5a; assay: method not stated (Table 3, column Affinity)
human C5a [3] = molecular target: T1, human C5a; assay: cell-based or functional assay; remark: listed apart in the source

Binder | blocking activity to C5a bioactivity (C5a-induced lysozyme release assay), molar ratio of antibody to C5a 1:2 (human C5a [1]) | Kd (human C5a [2]) | Blocking activity (inhibition of C5a-induced lysozyme release from human whole blood cells) at a ratio of Ab to C5a of ½:1 (human C5a [3])
B1 | 94% | 0.5 nM | ≥ 90%
B2 | 100% | 0.51 nM | ≥ 90%

— patent US20150266949A1 (INFLARX, published 2015)
